One series concerns the target N-protein WT (NWT) (SARS-CoV-2, UniProt P0DTC9 1-419). Nature of the series: SV-AUC; […], pH 7.4; […], pH 7.4; […], pH 7.50; temperature not given. The settings on record: protein: recombinant; tags: N-terminal 6xHis-TEV, cleaved; chain copies: 2; single strand.
A further series concerns the target CTD (SARS-CoV-2, UniProt P0DTC9 247-364). The description is as above. The settings on record: protein: recombinant; tags: N-terminal 6xHis-TEV, cleaved; chain copies: 2; single strand.

The values that follow come from article doi:10.1101/2023.11.22.568361.

Turning to TTTTTTTTTT (ssDNA) [T10], the binding result with N-protein WT (NWT) is “binds”.
Take TTTTTTTTTTTTTTTTTTTTTTTTTTTTTTTTTTTTTTTT (ssDNA) [T40]: the binding result with CTD and in the series with N-protein WT (NWT) was “binds” throughout.
